Results taken from patent US20060142193.

Target: T1, serum response factor (SRF), P11831
T1 chain: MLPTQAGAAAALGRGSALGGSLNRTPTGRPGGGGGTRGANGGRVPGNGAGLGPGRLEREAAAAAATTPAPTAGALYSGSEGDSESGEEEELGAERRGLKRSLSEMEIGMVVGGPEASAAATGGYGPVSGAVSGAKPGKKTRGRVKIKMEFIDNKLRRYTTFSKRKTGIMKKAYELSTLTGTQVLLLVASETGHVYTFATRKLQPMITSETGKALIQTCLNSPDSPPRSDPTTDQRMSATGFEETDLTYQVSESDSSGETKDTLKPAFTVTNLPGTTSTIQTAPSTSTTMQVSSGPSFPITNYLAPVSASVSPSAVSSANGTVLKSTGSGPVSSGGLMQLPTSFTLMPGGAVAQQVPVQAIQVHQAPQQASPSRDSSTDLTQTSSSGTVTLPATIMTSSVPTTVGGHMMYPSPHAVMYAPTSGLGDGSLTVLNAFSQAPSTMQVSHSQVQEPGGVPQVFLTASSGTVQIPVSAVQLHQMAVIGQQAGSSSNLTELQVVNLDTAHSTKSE

B1: ROCK1Δ1 (C-terminally truncated mutant (1-1080) of ROCK1) (protein)
chain: MSTGDSFETRFEKMDNLLRDPKSEVNSDCLLDGLDALVYDLDFPALRKNKNIDNFLSRYKDTINKIRDLRMKAEDYEVVKVIGRGAFGEVQLVRHKSTRKVYAMKLLSKFEMIKRSDSAFFWEERDIMAFANSPWVVQLFYAFQDDRYLYMVMEYMPGGDLVNLMSNYDVPEKWARFYTAEVVLALDAIHSMGFIHRDVKPDNMLLDKSGHLKLADFGTCMKMNKEGMVRCDTAVGTPDYISPEVLKSQGGDGYYGRECDWWSVGVFLYEMLVGDTPFYADSLVGTYSKIMNHKNSLTFPDDNDISKEAKNLICAFLTDREVRLGRNGVEEIKRHLFFKNDQWAWETLRDTVAPVVPDLSSDIDTSNFDDLEEDKGEEETFPIPKAFVGNQLPFVGFTYYSNRRYLSSANPNDNRTSSNADKSLQESLQKTIYKLEEQLHNEMQLKDEMEQKCRTSNIKLDKIMKELDEEGNQRRNLESTVSQIEKEKMLLQHRINEYQRKAEQENEKRRNVENEVSTLKDQLEDLKKVSQNSQLANEKLSQLQKQLEEANDLLRTESDTAVRLRKSHTEMSKSISQLESLNRELQERNRILENSKSQTDKDYYQLQAILEAERRDRGHDSEMIGDLQARITSLQEEVKHLKHNLEKVEGERKEAQDMLNHSEKEKNNLEIDLNYKLKSLQQRLEQEVNEHKVTKARLTDKHQSIEEAKSVAMCEMEKKLKEEREAREKAENRVVQIEKQCSMLDVDLKQSQQKLEHLTGNKERMEDEVKNLTLQLEQESNKRLLLQNELKTQAFEADNLKGLEKQMKQEINTLLEAKRLLEFELAQLTKQYRGNEGQMRELQDQLEAEQYFSTLYKTQVKELKEEIEEKNRENLKKIQELQNEKETLATQLDLAETKAESEQLARGLLEEQYFELTQESKKAASRNRQEITDKDHTVSRLEEANSMLTKDIEILRRENEELTEKMKKAEEEYKLEKEEEISNLKAAFEKNINTERTLKTQAVNKLAEIMNRKDFKIDRKKANTQDLRKKEKENRKLQLELNQEREKFNQMVVKHQKELNDMQAQLVEECAHRNELQMQL
level of full-length SRF after incubation with active caspase 3 in the presence or absence of ROCK1Δ1: The full-length level was markedly decreased in the presence of active ROCK1
